B1: KAT8 regulatory NSL complex subunit 2, residues 28 to 91; numbered along this chain, Q9H9L4 (parent)
chain: CAFTHRPCSHPRLEGQEFCIKHILEDKNAPFKQCSYISTKNGKRCPNAAPKPEKKDGVSFCAEH

± gives the uncertainty stated by the source.

In this series the parent is B1. In words: abundance fitness (aPCA) (normalised: wild type 0, dead -1); higher = more abundant; growth selection in yeast, the domain comes from the species named. The conditions noted are these: Homo sapiens.
Regarding CAFTHRPCSHPRLEGQEFCIKFILEDKNAPFKQCSYISTKNGKRCPNAAPKPEKKDGVSFCAEH, the abundance fitness is -1.81 ± 0.27.
For CAFTHRPCSHPRLEGQEFCIKVILEDKNAPFKQCSYISTKNGKRCPNAAPKPEKKDGVSFCAEH, the abundance fitness was -1.36 ± 0.059.
The figure for CAFTHRPCSHPRLEGQEFCIKYILEDKNAPFKQCSYISTKNGKRCPNAAPKPEKKDGVSFCAEH is -1.07 ± 0.16; for CAFTHRPCSHPRLEGQEFCIKSILEDKNAPFKQCSYISTKNGKRCPNAAPKPEKKDGVSFCAEH it is -0.729 ± 0.061; for CAFTHRPCSHPRLEGQEFCIKLILEDKNAPFKQCSYISTKNGKRCPNAAPKPEKKDGVSFCAEH it is -1.34 ± 0.07.
As to CAFTHRPCSHPRLEGQEFCIKDILEDKNAPFKQCSYISTKNGKRCPNAAPKPEKKDGVSFCAEH, the abundance fitness is -0.904 ± 0.098.
Regarding CAFTHRPCSHPRLEGQEFCIKKILEDKNAPFKQCSYISTKNGKRCPNAAPKPEKKDGVSFCAEH, the abundance fitness was -0.678 ± 0.087.
For the variant CAFTHRPCSHPRLEGQEFCIKGILEDKNAPFKQCSYISTKNGKRCPNAAPKPEKKDGVSFCAEH, the abundance fitness is -0.789 ± 0.053.
In the case of CAFTHRPCSHPRLEGQEFCIKCILEDKNAPFKQCSYISTKNGKRCPNAAPKPEKKDGVSFCAEH it was -0.383 ± 0.13; in that of CAFTHRPCSHPRLEGQEFCWKHILEDKNAPFKQCSYISTKNGKRCPNAAPKPEKKDGVSFCAEH, -0.201 ± 0.064.
As to CAFTHRPCSHPRLEGQEFCYKHILEDKNAPFKQCSYISTKNGKRCPNAAPKPEKKDGVSFCAEH, the abundance fitness is -0.151 ± 0.078.
CAFTHRPCSHPRLEGQEFCTKHILEDKNAPFKQCSYISTKNGKRCPNAAPKPEKKDGVSFCAEH: the abundance fitness is -0.2 ± 0.082.
The figure for CAFTHRPCSHPRLEGQEFCIKHILNDKNAPFKQCSYISTKNGKRCPNAAPKPEKKDGVSFCAEH is -0.203 ± 0.1; for CAFTHRPCSHPRLEGQEFCIKHILLDKNAPFKQCSYISTKNGKRCPNAAPKPEKKDGVSFCAEH it is -0.098 ± 0.044.
With CAFTHRPCSHPRLEGQEFCIKHILDDKNAPFKQCSYISTKNGKRCPNAAPKPEKKDGVSFCAEH, the abundance fitness is -0.188 ± 0.16.
In the case of CAFTHRPCSHPRLEGQEFCIKHILGDKNAPFKQCSYISTKNGKRCPNAAPKPEKKDGVSFCAEH, the abundance fitness is -0.063 ± 0.064.
As to CAFTHRPCSHPRLEGQEFCIKHILMDKNAPFKQCSYISTKNGKRCPNAAPKPEKKDGVSFCAEH, the abundance fitness was -0.092 ± 0.059.
Turning to CAFTHRPCSHPRLEGQEFCIKHILFDKNAPFKQCSYISTKNGKRCPNAAPKPEKKDGVSFCAEH, the abundance fitness is -0.065 ± 0.083.
The figure for CAFTHRPCSHPRLEGQEFCIKHILCDKNAPFKQCSYISTKNGKRCPNAAPKPEKKDGVSFCAEH is -0.223 ± 0.14; for CAFTHRPCSHPRLEGQEFCIKHILKDKNAPFKQCSYISTKNGKRCPNAAPKPEKKDGVSFCAEH it is -0.23 ± 0.071.
Turning to CAFTHRPCSHPRLEGQEFCIKHILHDKNAPFKQCSYISTKNGKRCPNAAPKPEKKDGVSFCAEH, the abundance fitness turned out to be 0.053 ± 0.17.
As for CAFTHRPCSHPRLEGQEFCIKHILIDKNAPFKQCSYISTKNGKRCPNAAPKPEKKDGVSFCAEH, the abundance fitness was -0.171 ± 0.089.
In the case of CAFTHRPCSHPRLEGQEFCIKHILADKNAPFKQCSYISTKNGKRCPNAAPKPEKKDGVSFCAEH, the abundance fitness is -0.132 ± 0.059.
The figure for CAFTHRPCSHPRLEGQEFCIAHILEDKNAPFKQCSYISTKNGKRCPNAAPKPEKKDGVSFCAEH is -0.057 ± 0.058; for CAFTHRPCSHPRLEGQEFCIFHILEDKNAPFKQCSYISTKNGKRCPNAAPKPEKKDGVSFCAEH it is 0.048 ± 0.12.
In the case of CAFTHRPCSHPRLEGQEFCISHILEDKNAPFKQCSYISTKNGKRCPNAAPKPEKKDGVSFCAEH, the abundance fitness was -0.125 ± 0.053.
CAFTHRPCSHPRLEGQEFCILHILEDKNAPFKQCSYISTKNGKRCPNAAPKPEKKDGVSFCAEH: the abundance fitness is -0.127 ± 0.048.
Regarding CAFTHRPCSHPRLEGQEFCIIHILEDKNAPFKQCSYISTKNGKRCPNAAPKPEKKDGVSFCAEH, the abundance fitness was -0.251 ± 0.13.
For CAFTHRPCSHPRLEGQEFCIWHILEDKNAPFKQCSYISTKNGKRCPNAAPKPEKKDGVSFCAEH, the abundance fitness is -0.173 ± 0.062.
With CAFTHRPCSHPRLEGQEFCIMHILEDKNAPFKQCSYISTKNGKRCPNAAPKPEKKDGVSFCAEH, the abundance fitness was -0.159 ± 0.068.
Turning to CAFTHRPCSHPRLEGQEFCIEHILEDKNAPFKQCSYISTKNGKRCPNAAPKPEKKDGVSFCAEH, the abundance fitness was -0.085 ± 0.078.
Regarding CAFTHRPCSHPRLEGQEFCIHHILEDKNAPFKQCSYISTKNGKRCPNAAPKPEKKDGVSFCAEH, the abundance fitness is -0.005 ± 0.094.
With CAFTHRPCSHPRLEGQEFCIPHILEDKNAPFKQCSYISTKNGKRCPNAAPKPEKKDGVSFCAEH, the abundance fitness was -0.904 ± 0.085.
For the variant CAFTHRPCSHPRLEGQEFCIQHILEDKNAPFKQCSYISTKNGKRCPNAAPKPEKKDGVSFCAEH, the abundance fitness was -0.117 ± 0.16.
As to CAFTHRPCSHPRLEGQEFCIYHILEDKNAPFKQCSYISTKNGKRCPNAAPKPEKKDGVSFCAEH, the abundance fitness is -0.227 ± 0.16.
Consider CAFTHRPCSHPRLEGQEFCITHILEDKNAPFKQCSYISTKNGKRCPNAAPKPEKKDGVSFCAEH, for which the abundance fitness is -0.157 ± 0.079.
Take CAFTHRPCSHPRLEGQEFCIVHILEDKNAPFKQCSYISTKNGKRCPNAAPKPEKKDGVSFCAEH: the abundance fitness was -0.117 ± 0.051.
In the case of CAFTHRPCSHPRLEGQEFCIDHILEDKNAPFKQCSYISTKNGKRCPNAAPKPEKKDGVSFCAEH it was -0.149 ± 0.13; in that of CAFTHRPCSHPRLEGQEFCIGHILEDKNAPFKQCSYISTKNGKRCPNAAPKPEKKDGVSFCAEH, -0.121 ± 0.056.
As to CAFTHRPCSHPRLEGQEFCICHILEDKNAPFKQCSYISTKNGKRCPNAAPKPEKKDGVSFCAEH, the abundance fitness is -0.119 ± 0.1.
Turning to CAFTHRPCSHPRLEGQEFCIRHILEDKNAPFKQCSYISTKNGKRCPNAAPKPEKKDGVSFCAEH, the abundance fitness was -0.058 ± 0.054.
As for CAFTHRPCSHPRLEGQEFCINHILEDKNAPFKQCSYISTKNGKRCPNAAPKPEKKDGVSFCAEH, the abundance fitness is -0.125 ± 0.095.

(Values after the Human Domainome abundance scans (Beltran et al. 2025).)
